Reference: US10538569B2, “Fusion polypeptide containing GLP and immunoglobulin hybrid Fc and use thereof” (GENEXINE, INC., priority 2014, dated 2020)

Assays:
[1] = cited from earlier work
[2] = PK profile of GLP-2-2G peptide, GLP-2-hyFc5 and GLP-2-hyFc9, subcutaneous, rats; set-up: species or system Sprague Dawley rats; settings: in vivo, sc, rat, serum, GLP-2 ELISA kit
Method: In order to confirm the pharmacokinetic profiles (PK profiles) of the GLP-2-hyFc5 and GLP-2-hyFc9 fusion polypeptides prepared above, experiments were performed as follows.
Male Sprague Dawley rats (3 rats/group) were administered subcutaneously with respective proteins (GLP-2-2G peptide, GLP-2-hyFc5, and GLP-2-hyFc9). Blood samples were collected before the administration and after the administration at 0.08-, 0.16-, 0.5-, 2-, 4-, 8-, 24-, 48-, 96-, 120-, and 168 hours, respectively. The blood samples were stored at room temperature for 30 minutes for agglutination. The samples were centrifuged at 3000 rpm for 10 minutes to obtain serum from each sample and then stored in a deep freezer. The samples were quantitated by dilution to be analyzed in a position on a straight line of standard curve using GLP-2 kit (Millipore, Cat. No. EZGLP2-37K).

half-life [2] [h]	Molecule	in-vivo half-life [1]
	glucagon like peptide-2 [GLP-2]	about 7 minutes
1.2	CC[C@H](C)[C@H](NC(=O)[C@H](Cc1ccccc1)NC(=O)[C@H](CC(=O)O)NC(=O)[C@H](CCCNC(=N)N)NC(=O)[C@H](C)NC(=O)[C@H](C)NC(=O)[C@H](CC(C)C)NC(=O)[C@H](CC(N)=O)NC(=O)[C@H](CC(=O)O)NC(=O)[C@H](CC(C)C)NC(=O)[C@@H](NC(=O)[C@@H](NC(=O)[C@H](CC(N)=O)NC(=O)[C@H](CCSC)NC(=O)[C@H](CCC(=O)O)NC(=O)[C@H](CC(=O)O)NC(=O)[C@H](CO)NC(=O)[C@H](Cc1ccccc1)NC(=O)[C@H](CO)NC(=O)CNC(=O)[C@H](CC(=O)O)NC(=O)CNC(=O)[C@@H](N)Cc1c[nH]cn1)[C@@H](C)O)[C@@H](C)CC)C(=O)N[C@@H](CC(N)=O)C(=O)N[C@@H](Cc1c[nH]c2ccccc12)C(=O)N[C@@H](CC(C)C)C(=O)N[C@H](C(=O)N[C@@H](CCC(N)=O)C(=O)N[C@H](C(=O)N[C@@H](CCCCN)C(=O)N[C@H](C(=O)N[C@H](C(=O)N[C@@H](CC(=O)O)C(=O)O)[C@@H](C)O)[C@@H](C)CC)[C@@H](C)O)[C@@H](C)CC [GLP-2-2G, reference compound]	
